# Experimental data reported in paper PMC9765544, “Metabolic Mechanism and Physiological Role of Glycerol 3-Phosphate in Pseudomonas aeruginosa PAO1” (mBio, 2022).
# T1: GlpR (Pseudomonas aeruginosa, UniProt Q51391)
# T1 construct: recombinant from pETDuet-glpR in E. coli BL21(DE3), HisTrap HP purified
# T1 sequence (Q51391 1-251): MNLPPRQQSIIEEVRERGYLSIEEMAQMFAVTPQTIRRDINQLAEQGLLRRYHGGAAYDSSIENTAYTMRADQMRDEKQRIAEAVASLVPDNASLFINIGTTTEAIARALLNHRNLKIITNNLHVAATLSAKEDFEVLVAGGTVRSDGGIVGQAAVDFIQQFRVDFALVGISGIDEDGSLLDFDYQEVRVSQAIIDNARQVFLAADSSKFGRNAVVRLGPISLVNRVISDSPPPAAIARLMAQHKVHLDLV
# B1: PA0562 (Pseudomonas aeruginosa PAO1) (protein)
# chain: MPHPIDALISDCDGVLVDSEVIAERVMYEALSAYAPLEELQRLLEGTFGLTSRDILDRVEKHFGLRIPDSFNREVRQRSEEMVAQVQPIPGAREALLALDLPVAVASNSRRHSLERSLARAGLSELIGERLASADMVALPKPAPDVYLHAASLLGVAPERCLVVEDSSTGTRAALAAGMRVIGFVGAGHIPAGHAEVLRELGAIAIVEHMRELPETVARLRRTV
# How the values were obtained:
# GlpR = target: T1, GlpR; test: EMSA, prevention of GlpR binding to glpFK and glpD promoter DNA; conditions: 10 mM G3P (lithium salt), 500 nM GlpR, 3.5 nM DNA probe, pH 7.4, 30 °C; effector (inducer)
# O=P(O)(O)OC[C@H](O)CO = test: purified protein; conditions: 5 mM MgCl2, 50 mM Tris-HCl pH 7.0, bis(cyclohexylammonium) salt
# [1] = substrate: O=P(O)(O)OC[C@H](O)CO; test: released inorganic phosphate, Michaelis-Menten regression; format: biochemical, Pseudomonas aeruginosa; conditions: 5 mM MgCl2, 50 mM Tris-HCl pH 7.0, bis(cyclohexylammonium) salt
molecule,measurement,setting,value
O=P(O)(O)OC[C@H](O)CO [G3P],"EMSA, prevention of GlpR binding to glpFK and glpD promoter DNA",GlpR,G3P prevents GlpR binding to the glpFK (D) and glpD (E) promoter regions
PA3172 (Pseudomonas aeruginosa PAO1),Km,O=P(O)(O)OC[C@H](O)CO,5.634 ± 0.209 mM
B1,Km,[1],8.937 ± 1.350 mM
